Data published in patent US20170173105A1, “AUTOASSEMBLING PEPTIDES FOR THE TREATMENT OF PULMONARY LEAKAGE” (3-D MATRIX, LTD., priority 2014, published 2017).

What was measured:
Assay type in all cases: physicochemical
[1] = pH and appearance of 2.5% peptide solutions after adding 0.1 N NaOH; details: for apparent stiffness on pH increase / color of solution on pH increase: pH increase up to approximately 3.5 or less with 0.1 N NaOH, 2.5% solutions
Procedure: To adjust the pH level of the peptide solutions by way of example, 0.1 N NaOH was added to 2 mL of 2.5% peptide solutions and their pH and appearance were measured.

[2] = Gelation of peptide solutions on saline buffer treatment (time sweep); details: saline buffer (0.15 M of NaCl); IEIK13 1.5%, KLD12 1.5%, PuraMatrix 2.5%
Procedure: The effect of salt ionic strength level surrounding peptide solution on the properties of peptide solutions was evaluated to identify the possibility of peptide gelation when the peptide solution is placed into the environment where salt ionic strength level is high. […] Without pH effect, the effect of saline treatment on gelation of peptide solutions were evaluated. […] This is because IEIK13 is much more sensitive to salt ionic strength levels. Fast gelation of IEIK13 at the salt ionic strength level similar to body fluid isotonic salt level may generally improve its function and gelation speed for various clinical applications. The results are shown in FIG. 19 for IEIK13, KLD12 and PuraMatrix® solutions. Time sweep tests were performed at 1 rad/sec and at 1 Pa with 20 mm plates and 500 μm gap distance. […]

[3] = Rheological properties of pH adjusted peptide solutions and hydrogels (stress/frequency sweep); details: for rheological property of solutions at various pH levels: PuraMatrix 2.5% solution, IEIK13 1.5% solution; for rheological property of solutions at various pH levels / rheological property of hydrogels after DMEM treatment at various pH: storage modulus at 1 rad/sec; for rheological properties of solutions after pH adjustment: at pH 3.4 (IEIK13 adjusted to 3.7), KLD12 1%, IEIK13 1%, PuraMatrix 1% and 2.5%
Procedure: Based on the visual observation of the effect of pH level on the properties of the peptide solutions, the effect on the rheological properties of the peptide solutions after adjusting their pH level to 3.4 (PuraMatrix® and KLD12) or 3.7 (IEIK13) was evaluated. If the pH levels of peptide solutions are higher than 3.5 (PuraMatrix® and KLD12) or 3.7 (IEIK13), the peptide solution began phase separation becoming cloudy. The rheological properties of PuraMatrix®, KLD12 and IEIK13 solutions were higher at pH 3.4. The results are shown in FIG. 2 for KLD12 1%, FIG. 3 for IEIK13 1%, and FIGS. 4-5 for PuraMatrix® 1% and 2.5%, respectively. Stress sweep tests were performed at 10 rad/s. Frequency sweep tests were performed at 1 Pa.
Based on the results of the effect on the rheological properties of the peptide solutions after adjusting their pH level to 3.4 (PuraMatrix® and KLD12) or 3.7 (IEIK13), the effect on the rheological properties of the peptide solutions at various pH levels was evaluated. […] The rheological properties of peptides were evaluated at various concentrations using a rheometer (DHR-1, TA Instruments) with 20 mm plates. The results are shown in FIG. 6A for PuraMatrix® 2.5% solution and FIG. 6B for IEIK13 1.5% solution, respectively. Frequency sweep tests were performed from 1 rad/sec to 10 rad/sec at 1 Pa and the storage modulus at 1 rad/sec was selected for data.
Based on the results of the effect on the rheological properties of the peptide solutions after adjusting their pH level, the effect on the rheological properties of the peptide hydrogels at various pH after DMEM treatment was evaluated and compared to the effect on the rheological properties of the peptide solutions at various pH before DMEM treatment. […] The results are shown in FIGS. 7A-7B for PuraMatrix® and FIGS. 8A-8B for IEIK (SEQ ID NO: 5), respectively. Frequency sweep tests were performed from 1 rad/sec to 10 rad/sec at 1 Pa and the storage modulus at 1 rad/sec was selected for data.

[4] = 0.1 N NaOH 0 μL/mL added in 2.5% solution, conc. 2.5%
[5] = 0.1 N NaOH 50 μL/mL added in 2.5% solution, conc. 2.38%
[6] = 0.1 N NaOH 100 μL/mL added in 2.5% solution, conc. 2.27%
[7] = 0.1 N NaOH 150 μL/mL added in 2.5% solution, conc. 2.17%
[8] = 0.1 N NaOH 200 μL/mL added in 2.5% solution, conc. 2.08%
[9] = 0.1 N NaOH 250 μL/mL added in 2.5% solution, conc. 2.0%
[10] = 0.1 N NaOH 275 μL/mL added in 2.5% solution, conc. 1.96%
[11] = 0.1 N NaOH 300 μL/mL added in 2.5% solution, conc. 1.92%
[12] = 0.1 N NaOH 350 μL/mL added in 2.5% solution, conc. 1.85%
[13] = last line per peptide, NaOH volume and conc. not given

Substance	Appearance [1, 4]	Peptide solution pH [1, 4]	Appearance [1, 5]	Peptide solution pH [1, 5]	Appearance [1, 6]	Peptide solution pH [1, 6]	Peptide solution pH [1, 7]	Peptide solution pH [1, 8]	Peptide solution pH [1, 9]	Peptide solution pH [1, 10]	Peptide solution pH [1, 11]	Peptide solution pH [1, 12]	Peptide solution pH [1, 13]	apparent stiffness on pH increase [1]	color of solution on pH increase [1]	gelation after saline buffer treatment [2]	rheological property of solutions at various pH levels [3]	rheological property of hydrogels after DMEM treatment at various pH [3]	rheological properties of solutions after pH adjustment [3]	also measured
Arg-Ala-Asp-Ala-Arg-Ala-Asp-Ala-Arg-Ala-Asp-Ala-Arg-Ala-Asp-Ala [PuraMatrix ®]	Clear, thick gel	2.2	Clear, thick gel	2.3	Clear, thick gel	2.4	2.7	2.9	3.2	3.4	3.6	4.5	7.0	increased	did not change the clear color	no or negligible gelation	increases with pH adjustment up to 3.4	increases with pH adjustment up to 3.4	higher	–
Ile-Glu-Ile-Lys-Ile-Glu-Ile-Lys-Ile-Glu-Ile-Lys-Ile [IEIK13]	Clear, thick gel	1.8	Clear, thick gel	2.1	Clear, thick gel	2.2	2.7	3.0	3.3	3.7	4.0	4.5	7.0	increased	did not change the clear color	fast gelation	increases with pH adjustment up to 3.4	increases with pH adjustment up to 3.4	higher	Appearance [1, 12]: Cloudy, brittle gel; Peptide solution pH ([1]; 0.1 N NaOH 400 μL/mL added in 2.5% solution, conc. 1.79%): 5.4; pH level at which the peptide solution began phase separation becoming cloudy [3]: > 3.7
Lys-Leu-Asp-Leu-Lys-Leu-Asp-Leu-Lys-Leu-Asp-Leu (Ac-KLDLKLDLKLDL-NH2) [KLD12]	Clear, thick gel	2.1	Clear, thick gel	2.4	Clear, thick gel	2.6	2.9	3.3	4.0	–	4.7	5.2	7.0	increased	did not change the clear color	no or negligible gelation	–	–	higher	Peptide solution pH ([1]; 0.1 N NaOH 225 μL/mL added in 2.5% solution, conc. 2.04%): 3.6; Appearance [1, 11]: Cloudy, brittle gel
